The target of this test is human CrkII (1–304) (human) (UniProt P46108). Put plainly: NMR titration.
Sequence of human CrkII (1–304) (human) (P46108 whole entry): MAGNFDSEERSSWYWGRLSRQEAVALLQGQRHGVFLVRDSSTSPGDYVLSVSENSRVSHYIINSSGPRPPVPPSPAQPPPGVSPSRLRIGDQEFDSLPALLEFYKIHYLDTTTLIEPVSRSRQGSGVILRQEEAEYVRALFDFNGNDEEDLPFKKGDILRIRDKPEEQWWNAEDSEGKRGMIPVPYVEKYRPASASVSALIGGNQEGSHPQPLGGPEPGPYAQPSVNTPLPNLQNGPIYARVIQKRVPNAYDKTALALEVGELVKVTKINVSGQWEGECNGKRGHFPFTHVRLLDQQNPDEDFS

The term Kd denotes the free concentration of one partner at which half of the binding sites on the other are occupied at equilibrium, for simple one-to-one binding. Substance “human CypA (1–165) (from UniProt P62937 1-165) (enzyme; other documents disagree on this pair)” registered a Kd of 15 µM.

(Values after paper PMC4718742.)
